Results published in patent US20020061306A1.

Target: different strains of S. pyogenes (surface of the bacteria)

B1: α2-macroglobulin (native α2M) (protein, UniProt P01023 24-1474, looked up)
chain: SVSGKPQYMVLVPSLLHTETTEKGCVLLSYLNETVTVSASLESVRGNRSLFTDLEAENDVLHCVAFAVPKSSSNEEVMFLTVQVKGPTQEFKKRTTVMVKNEDSLVFVQTDKSIYKPGQTVKFRVVSMDENFHPLNELIPLVYIQDPKGNRIAQWQSFQLEGGLKQFSFPLSSEPFQGSYKVVVQKKSGGRTEHPFTVEEFVLPKFEVQVTVPKIITILEEEMNVSVCGLYTYGKPVPGHVTVSICRKYSDASDCHGEDSQAFCEKFSGQLNSHGCFYQQVKTKVFQLKRKEYEMKLHTEAQIQEEGTVVELTGRQSSEITRTITKLSFVKVDSHFRQGIPFFGQVRLVDGKGVPIPNKVIFIRGNEANYYSNATTDEHGLVQFSINTTNVMGTSLTVRVNYKDRSPCYGYQWVSEEHEEAHHTAYLVFSPSKSFVHLEPMSHELPCGHTQTVQAHYILNGGTLLGLKKLSFYYLIMAKGGIVRTGTHGLLVKQEDMKGHFSISIPVKSDIAPVARLLIYAVLPTGDVIGDSAKYDVENCLANKVDLSFSPSQSLPASHAHLRVTAAPQSVCALRAVDQSVLLMKPDAELSASSVYNLLPEKDLTGFPGPLNDQDNEDCINRHNVYINGITYTPVSSTNEKDMYSFLEDMGLKAFTNSKIRKPKMCPQLQQYEMHGPEGLRVGFYESDVMGRGHARLVHVEEPHTETVRKYFPETWIWDLVVVNSAGVAEVGVTVPDTITEWKAGAFCLSEDAGLGISSTASLRAFQPFFVELTMPYSVIRGEAFTLKATVLNYLPKCIRVSVQLEASPAFLAVPVEKEQAPHCICANGRQTVSWAVTPKSLGNVNFTVSAEALESQELCGTEVPSVPEHGRKDTVIKPLLVEPEGLEKETTFNSLLCPSGGEVSEELSLKLPPNVVEESARASVSVLGDILGSAMQNTQNLLQMPYGCGEQNMVLFAPNIYVLDYLNETQQLTPEIKSKAIGYLNTGYQRQLNYKHYDGSYSTFGERYGRNQGNTWLTAFVLKTFAQARAYIFIDEAHITQALIWLSQRQKDNGCFRSSGSLLNNAIKGGVEDEVTLSAYITIALLEIPLTVTHPVVRNALFCLESAWKTAQEGDHGSHVYTKALLAYAFALAGNQDKRKEVLKSLNEEAVKKDNSVHWERPQKPKAPVGHFYEPQAPSAEVEMTSYVLLAYLTAQPAPTSEDLTSATNIVKWITKQQNAQGGFSSTQDTVVALHALSKYGAATFTRTGKAAQVTIQSSGTFSSKFQVDNNNRLLLQQVSLPELPGEYSMKVTGEGCVYLQTSLKYNILPEKEEFPFALGVQTLPQTCDEPKAHTSFQISLSVSYTGSRSASNMAIVDVKMVSGFIPLKPTVKMLERSNHVSRTEVSSNHVLIYLDKVSNQTLSLFFTVLQDVPVRDLKPAIVKVYDYYETDEFAIAEYNAPCSKDLGNA
Work on B1 yielded a % of added radiolabeled α2M bound of 0 to 76%.
